Laboratory results as given in patent US20060246071A1 (AstraZeneca / MedImmune, published 2006).

Legend:
[1] = molecular target: T1, recombinant human Angiopoietin-2 (human, UniProt O15123 19-496); test: competition ELISA, Ang-2 on coated Tie2/Fc
T1 construct: also called Ang-2; rhAng-2
T1 sequence: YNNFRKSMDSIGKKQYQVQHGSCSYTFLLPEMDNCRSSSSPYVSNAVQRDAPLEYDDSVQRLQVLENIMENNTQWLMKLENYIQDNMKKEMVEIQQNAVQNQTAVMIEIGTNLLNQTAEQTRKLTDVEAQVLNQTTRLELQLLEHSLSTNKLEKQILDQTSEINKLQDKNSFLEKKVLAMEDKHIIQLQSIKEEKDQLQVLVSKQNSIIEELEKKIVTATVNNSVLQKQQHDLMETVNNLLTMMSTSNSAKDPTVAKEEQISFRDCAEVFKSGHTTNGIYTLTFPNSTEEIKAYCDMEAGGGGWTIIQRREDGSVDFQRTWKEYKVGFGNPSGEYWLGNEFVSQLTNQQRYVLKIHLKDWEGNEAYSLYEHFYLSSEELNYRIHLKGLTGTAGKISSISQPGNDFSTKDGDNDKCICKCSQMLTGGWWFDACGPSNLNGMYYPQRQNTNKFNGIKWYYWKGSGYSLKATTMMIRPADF
Description: 96-well Nunc Immplates™ were coated with 100 μl of recombinant human Tie2/Fc fusion protein (R&D Systems, Inc., Cat. No. 313-TI-100) at 4 μg/ml by incubating overnight at 4° C. The plates were washed four times using Phosphate Buffer Saline (PBS) with a Skan™ Washer 300 station (SKATRON). The wells were blocked by 100 μl of ABX-blocking buffer (0.5% BSA, 0.1% Tween, 0.01% Thimerosal in PBS) for 1 hour.
The plates were incubated at room temperature for two hours before the unbound molecules were washed off. […] After washing twice, the bound Streptavidin was detected by HRP substrate (R&D Systems, Cat. No. DY998). The plates were incubated for 30 minutes before 450 stop solution (100 μl/well, BioFX, Cat #BSTP-0100-01) was added to terminate the reaction. The light absorbance at 450 nm was determined by a Spectramax Plus reader.
Each concentration of the mAb was tested in duplicate. The concentration-response relationship was found by curve fitting using Graphpad Prism™ graphic software (non-linear, Sigmnoid curve). The maximal inhibition (efficacy) and IC₅₀ (potency) were calculated by the software.

mouse Angiopoietin-2 [2] = molecular target: T2, mouse Angiopoietin-2 (mouse, UniProt O35608 19-496); test: competition ELISA: mAb titrated with mouse Ang-2 supernatant on plates coated with human Tie2/Fc; blocked partner: human Tie2/Fc
T2 construct: Secreted into the supernatant of HEK293F/293T cells transfected with the full-length open reading frame of 496 amino acids (GenBank BC027216); also called mAng-2; mouse Ang-2
T2 sequence: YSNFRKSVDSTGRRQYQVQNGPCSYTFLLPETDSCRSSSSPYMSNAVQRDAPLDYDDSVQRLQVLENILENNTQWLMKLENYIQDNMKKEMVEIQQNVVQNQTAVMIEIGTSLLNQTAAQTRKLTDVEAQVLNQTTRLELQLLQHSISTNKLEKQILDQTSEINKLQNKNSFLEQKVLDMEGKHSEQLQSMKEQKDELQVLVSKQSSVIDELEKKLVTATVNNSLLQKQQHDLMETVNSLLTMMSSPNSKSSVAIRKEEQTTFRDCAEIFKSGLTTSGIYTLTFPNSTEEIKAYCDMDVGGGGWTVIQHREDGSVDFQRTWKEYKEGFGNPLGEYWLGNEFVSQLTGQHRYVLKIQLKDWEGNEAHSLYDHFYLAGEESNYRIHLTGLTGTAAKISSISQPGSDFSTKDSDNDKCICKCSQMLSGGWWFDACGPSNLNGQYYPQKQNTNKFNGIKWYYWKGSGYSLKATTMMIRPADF
Description: (§1) For this purpose, an ELISA plate was coated with 4 μg/ml of hTie2/Fc (R&D Systems, Inc.) at 100 μl/well, and the wells were blocked as routine at 4° C. overnight.
(§2) Each concentration of the mAb was tested in triplicate. […] OD650 was determined 30 min after the HRP substrate was added.

mouse Angiopoietin-2 [3] = molecular target: T2, mouse Angiopoietin-2; test: direct ELISA on plates coated with conditioned medium of HEK293F/mouse Ang-2 transfectants, detection with anti-human Fc-HRP
Description: The plates were incubated at 4° C. overnight, followed by washing four times using Phosphate Buffer Saline with a Skan Washer 300 station (SKATRON). The wells were blocked by 100 μl of ABX-block buffer (0.5% BSA, 0.1% Tween, 0.01% Thimerosal in PBS) for 1 hour. […] The mAbs and each of their dilutes were tested in duplicate. […] To set up the detecting chromagenic reaction, 100 μl of TMB substrate (TMB-microwell, BioFX, Cat. No. TMSK-1000-01) was added after washing the wells three times using PBS. The plates were incubated for 30 minutes before 650 stop solution (100 μl/well, BioFX, Cat. No. BSTP-0100-01) was added to terminate the reaction.

[4] = molecular target: T1, recombinant human Angiopoietin-2; test: competition ELISA: mAb titrated with recombinant human Ang-2 on plates coated with human Tie2/Fc; blocked partner: human Tie2/Fc
Description: as §1, §2

Binder | Efficacy (ratio of bound Ang-2 with mAbs (30 µg/ml) versus without mAbs) [1] | also measured
mAb 3.19.3 (antibody, V domains shown, Variable regions only; hybridoma-derived fully human IgG kappa; also called x3.19) VH: QVQLVESGGGVVQPGRSLRLSCAASGFTFTNYGMHWGRQAPGKGLEWVAVISHDGNNKYYVDSVKGRFTISRDNSKNTLYLQMNSLRAEDTAVYYCAREGIDFWSGLNWFDPWGQGTLVTVSS VL: EIVLTQSPGTLSLSPGERATLSCRASQSITGSYLAWYQQKPGQAPRLLICGASSWATGIPDRFSGSGSGTDFTLTISRLEPEDFAVYYCQQYSSSPITFGQGTRLEIKR | 0.395 | IC50 (read off the curve) (mouse Angiopoietin-2 [2]): ~2 µg/mL; EC50 (read off the curve) (mouse Angiopoietin-2 [3]): ~1 µg/mL; IC50 (read off the curve) [4]: ~0.7 µg/mL
mAb 5.28.1 (antibody, V domains shown, Variable regions only; hybridoma-derived fully human IgG kappa; also called x5.28) VH: EVQLVESGGIVVQPGGSLRLSCAASGFTFDDYTMHWVRQTPGKGLEWVSLISWDGGSTYYADSVKGRFTISRDNSKNSLYLQMNSLRTEDTALYYCAKDIDIAVAGTGFDHWGQGTLVTVSS VL: EIVMTQSPATLSVSPGERATLSCRASQSVTSNLAWYQQKPGQAPRLLIYGALIRATGIPARFSGSGSGTEFTLTISSLQSEDFAVYYCQQYNNWPFTFGPGTKVDIKR | 0.389 | –
mAb 5.103.1 (antibody, V domains shown, Variable regions only; hybridoma-derived fully human IgG kappa; also called x5.103*) VH: QVQLVQSGAEVKKPGASVKVSCKASGYTFTGYYLYWVPQAPGQGLEWMGWISPNSGGTNYAQKFQGRVTMTRDTSISTAYMELSRLRSDDTAVYYCARDQVIAVAGPFDYWAQGTLVTVSS VL: not shown | 0.232 | –
mAb 5.86.1 (antibody, V domains shown, Variable regions only; hybridoma-derived fully human IgG kappa; also called x5.86) VH: QVQLVQSGAEVKKPGASVKVSCKASGYTFTGYHMYWVRQAPGQGLEWLGWINPNSGGTNYAQKFQGRVTMTRDTSISTAYMELSRLRSDDTAVYYCVRDQGIAAAGPFDYWCQGTLVTVSS VL: DIRMTQSPSSLSASVGDRVTITCRASQRISTYLNWYQQKPGKAPKFLIYAASSLQSGVPSRFSGSGSGTDFTLTISSLQPEDFATYYCQQSYTTPFTFGPGTKVDIKR | 0.384 | –
mAb 3.3.2 (antibody, V domains shown, Variable regions only; hybridoma-derived fully human IgG kappa; also called 3.3.1; x3.3) VH: EVQLVESGGGLVQPGGSLRLSCAVSGFTFSSYWMSWVRQAPGKGLEWVANIKQDGSEKYYVDSVKGRFTISRDNAKNSLYLQMNSLRAEDTAVYYCARDQGIAVAGPFDYWGQGTLVTVSS VL: EIVMTQSPATLSVSPGERATLSCRASQTVSSDLAWYQQKPGQAPRLLIYGASIRATGIPARFSGSGSGTEFTLTISSLQSEDFAVYSCQQYYNWWTFGQGTKVEIKR | 0.388 | –
mAb 3.31.2 (antibody, V domains shown, Variable regions only; hybridoma-derived fully human IgG kappa; also called x3.31*) VH: EVQLVESGGGLVQPGGSLRLSCAASGFTFSSYWMSWVRQAPGKGLEWVANIKQDGSDKYYVDSVKGRFTISRDNAKNSLYLRMNSLRAEDTAVFYCARDMGSGWFDYWGQGTLVTVSS VL: EVVMTQSPATLSVSPGERATLSCRASQSVGSNLAWYQQKPGQAPRLLIYGASTRATGIPARFSGSGSGTEFTLTISSLQSEDFAVYCCQQYNHWWTFGQGTKVEIKR | 0.375 | –
mAb 5.88.3 (antibody, V domains shown, Variable regions only; hybridoma-derived fully human IgG kappa; also called x5.88*) VH: EVQMVESGGGLVQPGGSLRLSCAASGFTLRSYWMSWVRQAPGKGLEWVANIKEDGSEKYHVDSVKGRFTISRDNAENSLFLQMSSLRAEDTAVYYCARDMEASAGLFDYWGQGTLVTVSS VL: EIVMTQSPATLSVSPGERAILSCRASQSISSNLAWYQQKPGQAPRLLIYGASTRATGIPARFSGSGSGTEFTLTISSLQSEDFAVYYCQQYNYWWTFGQGTKVEIKR | 0.403 | –
mAb 5.101.1 (antibody, V domains shown, Variable regions only; hybridoma-derived fully human IgG kappa; also called x5.101) VH: not shown VL: EIVMTQSPATLSVSPGERATLSCRASQSLISNLAWYQQKPGQAPRLLIFGASTRATGIPARFSGSGSGTEFTLTISSLQSEDFAVYYCHQYNNWWTFGQGTKVEIKR | 0.364 | –
